Experimental data published in paper doi:10.1101/2024.06.26.600905 (bioRxiv, 2024).
Read-outs that look alike come from different tables or passages of the source. Each block holds one molecule with its values, some of them ahead of it. Where no end group is shown, it is not given here. [ ]: non-standard residue; d: D form. pY = N[C@@H](Cc1ccc(OP(=O)(O)O)cc1)C(=O)O; TOTD membrane = not defined here; pS = N[C@@H](COP(=O)(O)O)C(=O)O

How the values were obtained:
[1] = target: His6-SPAK CCT (mouse SPAK 459-556) (mouse) (UniProt Q9Z1W9); assay: fluorescence polarisation
[2] = target: NH3+-NLVGRF-[DAP-FAM]-VSPVPE-COO- fluorescent probe peptide (human); assay: fluorescence polarisation
[3] = target: T1, His6-OSR1 CCT (human OSR1 433-527) (human, UniProt O95747 433-527); assay: peptide or protein array
[4] = target: T1, His6-OSR1 CCT (human OSR1 433-527); assay: fluorescence polarisation
[5] = target: His6-SPAK CCT (mouse SPAK 459-556) (mouse) (UniProt Q9Z1W9); assay: fluorescence polarisation; remark: listed apart in the source

T1 sequence (O95747 433-527): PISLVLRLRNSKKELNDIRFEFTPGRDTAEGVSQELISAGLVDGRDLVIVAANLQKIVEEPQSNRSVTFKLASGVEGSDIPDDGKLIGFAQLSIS

Ki [1]: 7.2 µM
Molecule: hWNK4 1012-1024 wild type peptide …

Kd [2]: 0.67 µM
Molecule: His6-SPAK CCT (mouse SPAK 459-556) (from UniProt Q9Z1W9 459-556) (domain or fragment)

Kd [2]: 1.5 µM
Molecule: His6-OSR1 CCT (human OSR1 433-527) (from UniProt O95747 433-527) (domain or fragment)

fold decrease in affinity relative to wild type [1]: 3.1 fold
Molecule: hWNK1 1253-1265 R1257A peptide …

fold decrease in affinity relative to wild type [2]: 50 fold
Molecule: purified SPAK CCT domain D477Q (domain or fragment)

binding result [3]: binds
B1: hWNK4 1012-1024 wild type peptide QLVGRFQVTSSKE on the peptide array membrane (peptide)
peptide: Ac-QLVGRFQVTSSKE-{TOTD membrane}
modifications: reading uncertain

binding result [4]: binds
B2: Cavin1 146-158 motif peptide (peptide)
peptide: LRRRNFKVMIYQD

binding result [4]: binds
B3: hWNK1 1253-1265 peptide, proline and valine to alanines at +4/+5 (peptide)
peptide: SAGRRFIVSAAPE

Ki [5]: 2.5 µM
B4: hWNK1 1253-1265 wild type peptide NH3+-…-COO- (peptide)
peptide: H-SAGRRFIVSPVPE-OH

fold decrease in affinity relative to wild type [4]: ~2.5 fold
fold decrease in affinity relative to wild type [5]: 2.5 fold
B5: hWNK1 1253-1265 peptide phosphorylated on serine at the +3 position (peptide)
peptide: SAGRRFIV[pS]PVPE

Ki [4]: 5.1 µM
B6: hWNK1 1253-1265 wild type peptide NH3+-SAGRRFIVSPVPE-COO- (peptide)
peptide: H-SAGRRFIVSPVPE-OH

binding result [4]: binds
B7: hWNK1 1253-1265 peptide, arginines replaced with alanine-histidine (peptide)
peptide: SAGAHFIVSPVPE

binding result [4]: binds
B8: hWNK1 1253-1265 peptide, arginines replaced with lysine-alanine (peptide)
peptide: SAGKAFIVSPVPE

binding result [4]: binds
B9: hWNK1 1253-1265 peptide, -3 glycine and -2 arginine to alanine-alanine (peptide)
peptide: SAAARFIVSPVPE

Ki [4]: 16.3 µM
Ki [1]: 4.2 µM
B10: hWNK1 1253-1265 peptide, arginines replaced with lysine-lysine (peptide)
peptide: SAGKKFIVSPVPE

fold decrease in affinity relative to wild type [4]: ~1.5 fold
fold decrease in affinity relative to wild type [1]: 1.5 fold
B11: hWNK1 1253-1265 peptide, first arginine of RRF to alanine (peptide)
peptide: SAGARFIVSPVPE

binding result [4]: binds
B12: hWNK1 1253-1265 peptide, -3 glycine and -2 arginine to valine-alanine (peptide)
peptide: SAVARFIVSPVPE

binding result [4]: binds
B13: hWNK1 1253-1265 peptide, arginines replaced with alanine-lysine (peptide)
peptide: SAGAKFIVSPVPE

fold decrease in affinity relative to wild type [4]: 11 fold
fold decrease in affinity relative to wild type [1]: 11 fold
B14: hWNK1 1253-1265 peptide, arginines replaced with histidine-alanine (peptide)
peptide: SAGHAFIVSPVPE

fold decrease in affinity relative to wild type [4]: ~3.1 fold
B15: hWNK1 1253-1265 R1257A peptide SAGRAFIVSPVPE (peptide)
peptide: SAGRAFIVSPVPE

fold decrease in affinity relative to wild type [4]: ~7 fold
fold decrease in affinity relative to wild type [1]: 7 fold
B16: hWNK1 1253-1265 peptide, arginines replaced with histidine-histidine (peptide)
peptide: SAGHHFIVSPVPE

Ki [4]: 12.9 µM
B17: hWNK4 1012-1024 wild type peptide QLVGRFQVTSSKE (peptide)
peptide: QLVGRFQVTSSKE

binding result [4]: binds
B18: hWNK4 1012-1024 peptide, threonine to alanine at the +3 position (peptide)
peptide: QLVGRFQVASSKE

binding result [4]: binds
B19: hWNK4 1012-1024 peptide, glycine to serine at the -2 position (peptide)
peptide: QLVSRFQVTSSKE

binding result [4]: binds
B20: hWNK4 1012-1024 peptide, valine to isoleucine at the +2 position (peptide)
peptide: QLVGRFQITSSKE

binding result [4]: binds
B21: hWNK4 1012-1024 peptide, glutamine to alanine at the +1 position (peptide)
peptide: QLVGRFAVTSSKE

binding result [4]: binds
B22: hWNK4 1012-1024 peptide, valine to leucine at the +2 position (peptide)
peptide: QLVGRFQLTSSKE

binding result [4]: binds
B23: p-Tyr156 Cavin1 peptide (Cavin1 146-158) (peptide)
peptide: LRRRNFKVMI[pY]QD
